Source: the Human Domainome abundance scans (Beltran et al. 2025)
± gives the uncertainty stated by the source.

B1: Ankyrin-2, residues 3571 to 3650; numbered along this chain, Q01484 (parent)
chain: ERLAYIADHLGFSWTELARELDFTEEQIHQIRIENPNSLQDQSHALLKYWLERDGKHATDTNLVECLTKINRMDIVHLME

Variants of: B1
Test: abundance fitness (aPCA) (normalised: wild type 0, dead -1); higher = more abundant; growth selection in yeast, the domain comes from the species named
Details: Homo sapiens

**Q.** Which abundance fitness does the source give for ERLAYIADHLGFSWTELARELDFTEEQIHQIRIENPNSLQDQVHALLKYWLERDGKHATDTNLVECLTKINRMDIVHLME [S43V] here?
**A.** Its abundance fitness is -0.25 ± 0.17.

**Q.** With ERLAYIALHLGFSWTELARELDFTEEQIHQIRIENPNSLQDQSHALLKYWLERDGKHATDTNLVECLTKINRMDIVHLME [D8L] as the variant, how does the abundance fitness read?
**A.** The abundance fitness was 0.052 ± 0.09.

**Q.** For ERLAYIAQHLGFSWTELARELDFTEEQIHQIRIENPNSLQDQSHALLKYWLERDGKHATDTNLVECLTKINRMDIVHLME [D8Q], which abundance fitness is on record?
**A.** The abundance fitness was 0.234 ± 0.26.

**Q.** With ERLAYIADHLGFSWQELARELDFTEEQIHQIRIENPNSLQDQSHALLKYWLERDGKHATDTNLVECLTKINRMDIVHLME [T15Q] as the variant, how does the abundance fitness read?
**A.** Its abundance fitness is -0.083 ± 0.15.

**Q.** For ERLAYIADHLGFSWTELARELDFTEEQIHQIRIENPNSLQDQSHALLKYWLERDGKHATDTNVVECLTKINRMDIVHLME [L63V], which abundance fitness is on record?
**A.** Its abundance fitness is -0.091 ± 0.041.

**Q.** For ERFAYIADHLGFSWTELARELDFTEEQIHQIRIENPNSLQDQSHALLKYWLERDGKHATDTNLVECLTKINRMDIVHLME [L3F], which abundance fitness is on record?
**A.** Its abundance fitness is 0.143 ± 0.075.

**Q.** Which abundance fitness does the source give for ERLAYIADHLGFSWTELARELDFTEEQIHQIRIENPNSLQDQSHALLKYWLERTGKHATDTNLVECLTKINRMDIVHLME [D54T] here?
**A.** The abundance fitness was 0.018 ± 0.095.

**Q.** For ERLAYIADHLGFSWTELARELDFTEEQIHQIRIPNPNSLQDQSHALLKYWLERDGKHATDTNLVECLTKINRMDIVHLME [E34P], which abundance fitness is on record?
**A.** The abundance fitness was -0.678 ± 0.093.

**Q.** Which abundance fitness does the source give for ERLAYIADHLGFSWTELFRELDFTEEQIHQIRIENPNSLQDQSHALLKYWLERDGKHATDTNLVECLTKINRMDIVHLME [A18F] here?
**A.** The abundance fitness was -1.07 ± 0.42.

**Q.** For ERLAYIADHLGFSWTELARELDFTEDQIHQIRIENPNSLQDQSHALLKYWLERDGKHATDTNLVECLTKINRMDIVHLME [E26D], which abundance fitness is on record?
**A.** The abundance fitness was -0.053 ± 0.12.

**Q.** Which abundance fitness does the source give for ERLAYIADHLGFSWTELARELDFTEPQIHQIRIENPNSLQDQSHALLKYWLERDGKHATDTNLVECLTKINRMDIVHLME [E26P] here?
**A.** Its abundance fitness is -0.086 ± 0.064.

**Q.** With ERLAYIADHLGFSWTELARELDFTEEQIHQIRIENPNSLQDQSHALLKYWLERDGKHTTDTNLVECLTKINRMDIVHLME [A58T] as the variant, how does the abundance fitness read?
**A.** Its abundance fitness is -0.098 ± 0.082.

**Q.** With ERLAYIADHLGFSWTELARELDFTEEQIHQIRIENPNSLQFQSHALLKYWLERDGKHATDTNLVECLTKINRMDIVHLME [D41F] as the variant, how does the abundance fitness read?
**A.** Its abundance fitness is -0.168 ± 0.073.

**Q.** With ERLAYIADHLGFSWTELARELDFTEEQIHQIRIENPNSLQRQSHALLKYWLERDGKHATDTNLVECLTKINRMDIVHLME [D41R] as the variant, how does the abundance fitness read?
**A.** The abundance fitness was -0.058 ± 0.05.

**Q.** With ERLAYIADHLGFSWTELARELDFTEEQIHQIRIENPNSLQLQSHALLKYWLERDGKHATDTNLVECLTKINRMDIVHLME [D41L] as the variant, how does the abundance fitness read?
**A.** Its abundance fitness is -0.038 ± 0.05.

**Q.** For ERLAYIADHLGFSWTELARELDFTEEQIHQIRIENPNSLQTQSHALLKYWLERDGKHATDTNLVECLTKINRMDIVHLME [D41T], which abundance fitness is on record?
**A.** Its abundance fitness is -0.013 ± 0.075.

**Q.** Which abundance fitness does the source give for ERLAYIADHLGFSWTELARELDFTEEQIHQIPIENPNSLQDQSHALLKYWLERDGKHATDTNLVECLTKINRMDIVHLME [R32P] here?
**A.** The abundance fitness was -0.293 ± 0.047.

**Q.** With ERLAYIADHLGFSWTELARELDFTEEQIHQITIENPNSLQDQSHALLKYWLERDGKHATDTNLVECLTKINRMDIVHLME [R32T] as the variant, how does the abundance fitness read?
**A.** Its abundance fitness is -0.127 ± 0.082.

**Q.** Which abundance fitness does the source give for ERLAYIADHLGFSWTELARELDFTEEQIHQIRIENPNQLQDQSHALLKYWLERDGKHATDTNLVECLTKINRMDIVHLME [S38Q] here?
**A.** The abundance fitness was -0.103 ± 0.078.

**Q.** Which abundance fitness does the source give for ERLAYIADHLGFSWTELARELDFTEEQIHQIRIENPNSLQDQSHALLKYWLERDGKHATDTNLVECLTNINRMDIVHLME [K69N] here?
**A.** Its abundance fitness is 0.012 ± 0.12.

**Q.** With ERLAYIADHLGFSWTEPARELDFTEEQIHQIRIENPNSLQDQSHALLKYWLERDGKHATDTNLVECLTKINRMDIVHLME [L17P] as the variant, how does the abundance fitness read?
**A.** Its abundance fitness is -1.17 ± 0.2.

**Q.** Which abundance fitness does the source give for EVLAYIADHLGFSWTELARELDFTEEQIHQIRIENPNSLQDQSHALLKYWLERDGKHATDTNLVECLTKINRMDIVHLME [R2V] here?
**A.** The abundance fitness was 0.024 ± 0.23.

**Q.** Which abundance fitness does the source give for ERLAYIADHLGFSETELARELDFTEEQIHQIRIENPNSLQDQSHALLKYWLERDGKHATDTNLVECLTKINRMDIVHLME [W14E] here?
**A.** Its abundance fitness is -1.13 ± 0.25.

**Q.** For ERLAYIADHLGFSWTELARELDFTEEQIHQIRIENPNSLQDQSHALLKYWLERDGKHATDTNLVECLFKINRMDIVHLME [T68F], which abundance fitness is on record?
**A.** Its abundance fitness is 0.041 ± 0.15.

**Q.** Which abundance fitness does the source give for ERLAYIADHLGFSWTELARELDFTEEQIHQIRIENPNSLQDQSHALLKYWLERDGKHATDTNLVECLYKINRMDIVHLME [T68Y] here?
**A.** Its abundance fitness is -0.136 ± 0.17.

**Q.** For ERLAYIADHLGFSWTELAMELDFTEEQIHQIRIENPNSLQDQSHALLKYWLERDGKHATDTNLVECLTKINRMDIVHLME [R19M], which abundance fitness is on record?
**A.** Its abundance fitness is 0.083 ± 0.19.

**Q.** For ERLAYIADHLGFSWTELARELDFTEEQIHQIRIENPNSLQDQSHALLKYWLKRDGKHATDTNLVECLTKINRMDIVHLME [E52K], which abundance fitness is on record?
**A.** The abundance fitness was 0.036 ± 0.13.

**Q.** Which abundance fitness does the source give for ERLAYIADHLGFSWTELARELDFTEEQIHQIRIENPNSLQDQSHALLKYWLARDGKHATDTNLVECLTKINRMDIVHLME [E52A] here?
**A.** Its abundance fitness is 0.037 ± 0.094.

**Q.** With ERLAYIADHLGFSWTELARELDFTEEQIHQIRIENPNSLQDQSHALLKYWLWRDGKHATDTNLVECLTKINRMDIVHLME [E52W] as the variant, how does the abundance fitness read?
**A.** The abundance fitness was -0.045 ± 0.12.

**Q.** For ERLAYIADHLGFSWTELARELDFTEEQIHQIRIENPNSCQDQSHALLKYWLERDGKHATDTNLVECLTKINRMDIVHLME [L39C], which abundance fitness is on record?
**A.** The abundance fitness was -0.017 ± 0.14.

**Q.** For ERLAYIADHLGFSWTELARELDFTEEQIHQIRIENPNSGQDQSHALLKYWLERDGKHATDTNLVECLTKINRMDIVHLME [L39G], which abundance fitness is on record?
**A.** The abundance fitness was -0.108 ± 0.049.

**Q.** With ERLAYIADHLGFSWTELARELDFTEEQIHQIRIENPNSLQDQSHALLKYWLERDGKHATDTNLVECLTKINRRDIVHLME [M73R] as the variant, how does the abundance fitness read?
**A.** The abundance fitness was 0.018 ± 0.35.

**Q.** For ERLAYIADHLGFSWTELARELDFTEEQIHQIRIENPNSLQDQSHALLKYWLERDGKHATDNNLVECLTKINRMDIVHLME [T61N], which abundance fitness is on record?
**A.** Its abundance fitness is -0.244 ± 0.25.

**Q.** Which abundance fitness does the source give for ERLAYIADHLGFSWTELARELDFTEEQIHQIRIENPNSLQDQSHALLKYWLERDGKHATDFNLVECLTKINRMDIVHLME [T61F] here?
**A.** The abundance fitness was -0.063 ± 0.18.
